Where two headings read alike, the source gives them in different places.
Experiments:
[1] = target: TwinStrep-CcSir2 protein (TwinStrep-tag fused to the N-terminus of His6-CcSir2) (Caballeronia cordobensis); experiment: co-elution from a Heparin column with SDS-PAGE densitometry
GsSir2;GsAgo [2] = target: T1, GsSir2;GsAgo (Geobacter sulfurreducens Caccavo (ATCC …, UniProt Q74DF6;Q74DF5 1-587;1-473, |)); experiment: EMSA
GsSir2;GsAgo [3] = target: T1, GsSir2;GsAgo; experiment: EMSA; remark: listed apart in the source
GsSir2;GsAgo [4] = target: T1, GsSir2;GsAgo; experiment: EMSA; remark: listed apart in the source
GsSir2(D230A);GsAgo [5] = target: T2, GsSir2(D230A);GsAgo (Geobacter sulfurreducens Caccavo (ATCC …, UniProt Q74DF6;Q74DF5 1-587;1-473, D230A|)); experiment: EMSA
GsSir2APAZ;GsAgo = GsSir2APAZ;GsAgo (Geobacter sulfurreducens Caccavo (ATCC …, UniProt Q74DF6;Q74DF5 1-587;1-473, R440E;R442E;R517E;R525E;R528E;R531E|)); experiment: EMSA
GsSir2(D230A);GsAgo [6] = target: T2, GsSir2(D230A);GsAgo; experiment: EMSA; remark: listed apart in the source

| Molecule | Kd (GsSir2;GsAgo [2]) | Kd (GsSir2;GsAgo [4]) | also measured |
| --- | --- | --- | --- |
| CcAgo protein (short pAgo of the CcSir2/Ago system) (natural protein) | – | – | stoichiometry N [1]: 1 Sir2:Ago |
| AUAAUGGUUUCUUAGACGUCGUUUUAGAGCUGUGUUGUUUCG (ssRNA) [ssRNA (TF-A)] | 0.042 ± 0.015 nM | – | – |
| gRNA TF-A + target ssRNA MZ-1185 (dsRNA, 5'-phosphate on guide) RNA 1: AUAAUGGUUUCUUAGACGUCGUUUUAGAGCUGUGUUGUUUCG RNA 2: CGAAACAACACAGCUCUAAAACGACGUCUAAGAAACCAUUAU | – | 0.205 ± 0.058 nM | Kd (GsSir2;GsAgo [3]): 0.567 ± 0.112 nM |
| gRNA TF-A + nsp-ssDNA MZ-589 (mixed, 5'-phosphate on guide) RNA: AUAAUGGUUUCUUAGACGUCGUUUUAGAGCUGUGUUGUUUCG DNA: GGAGATGGGAAGTCATTAGATGTAGAACTTGAATGGCAACGG | – | 0.42 ± 0.231 nM | – |
| gRNA TF-A + target ssDNA MZ-949 (DNA:RNA, 5'-phosphate on guide) RNA: AUAAUGGUUUCUUAGACGUCGUUUUAGAGCUGUGUUGUUUCG DNA: CGAAACAACACAGCTCTAAAACGACGTCTAAGAAACCATTAT | – | 0.02 ± 0.008 nM | Kd (GsSir2;GsAgo [3]): 0.079 ± 0.007 nM; Kd (GsSir2(D230A);GsAgo [5]): 0.14 ± 0.057 nM; binding result (GsSir2APAZ;GsAgo): no binding; Kd (GsSir2(D230A);GsAgo [6]): 0.038 ± 0.013 nM |
| dsRNA (TF-A/MZ-1185) (dsRNA) RNA 1: AUAAUGGUUUCUUAGACGUCGUUUUAGAGCUGUGUUGUUUCG RNA 2: CGAAACAACACAGCUCUAAAACGACGUCUAAGAAACCAUUAU | 73 ± 29 nM | – | – |
| RNA/DNA heteroduplex (TF-A/MZ-949) (DNA:RNA) RNA: AUAAUGGUUUCUUAGACGUCGUUUUAGAGCUGUGUUGUUUCG DNA: CGAAACAACACAGCTCTAAAACGACGTCTAAGAAACCATTAT | 4.31 ± 0.37 nM | – | – |
| ATAATGGTTTCTTAGACGTCGTTTTAGAGCTGTGTTGTTTCG (ssDNA) [ssDNA (TK-49)] | 0.033 ± 0.016 nM | – | – |
| gDNA TK-49 + target ssRNA MZ-1185 (DNA:RNA, 5'-phosphate on guide) DNA: ATAATGGTTTCTTAGACGTCGTTTTAGAGCTGTGTTGTTTCG RNA: CGAAACAACACAGCUCUAAAACGACGUCUAAGAAACCAUUAU | – | 0.252 ± 0.114 nM | – |
| ATAATGGTTTCTTAGACGTCGTTTTAGAGCTGTGTTGTTTCG (ssDNA, circularised by CircLigase II) [circular ssDNA (TK-49)] | 0.072 ± 0.018 nM | – | – |
| gDNA TK-49 + target ssDNA MZ-949 (dsDNA, 5'-phosphate on guide) DNA 1: ATAATGGTTTCTTAGACGTCGTTTTAGAGCTGTGTTGTTTCG DNA 2: CGAAACAACACAGCTCTAAAACGACGTCTAAGAAACCATTAT | – | 0.022 ± 0.005 nM | – |
| dsDNA (TK-49/MZ-949) (dsDNA) DNA 1: ATAATGGTTTCTTAGACGTCGTTTTAGAGCTGTGTTGTTTCG DNA 2: CGAAACAACACAGCTCTAAAACGACGTCTAAGAAACCATTAT | 51 ± 20 nM | – | – |
